In assay [1] the target is T1, biotin-labeled PD-L1-Fc (human, UniProt Q9NZQ7 19-238, limits assumed, biotin-labeled (sites not given)).
T1 construct: not shown: Fc part
Put plainly: ELISA: biotin-PD-L1-Fc binding to coated human PD-1 with titrated antibody; enhancement of PD-L1/PD-1 binding. As for the experimental part: (§1) The ELISA plate (Nunc) was coated with 100 μl/well of 0.5 μg/ml recombinant human PD-1 protein in PBS at 4° C. overnight. The plate was washed with PBS-T (0.05% Tween), and blocked with 200 μl/well of PBST containing 1% BSA at 37° C. for 0.5 hr. Then the blocking buffer was discarded, and 50 μl of 10 μg/ml purified antibody to be tested was added to the first test well. 3-fold serial dilutions were made, and a total of 11 test concentration gradients were given. […] The plate was washed 3 times with PBST, and incubated with 100 μl/well of Streptavidin-HRP (SA-HRP, GenScript) at 37° C. for 10 min. Finally, the plate was washed 5 times with PBST, and then a TMB developing solution (GenScript) was added and incubated at room temperature for 15 min in the dark. The reaction was terminated by adding 50 μl of 1M HCl stop solution (Sigma). The plate was read at 450 nm on a microplate reader.
A general note: In an ELISA, binding on a coated surface is turned into a signal by an enzyme label.

The target of assay [2] is T2, human PD-L1 protein (human, UniProt Q9NZQ7 19-238, limits assumed). Put plainly: ELISA on human PD-L1 protein; antibody treated for 20 min at 70 C. As for the experimental part: (§2) The antibody samples were treated for 20 min at various temperature gradients respectively, and then centrifuged to remove the pellet. Then the amount of remaining antibody was evaluated by ELISA. (The temperature gradient includes: room temperature, 30° C., 40° C., 50° C., 60° C., 70° C., […]) (FIG. 4)

In assay [3] the target is T1, biotin-labeled PD-L1-Fc. Put plainly: ELISA: biotin-PD-L1-Fc binding to coated human PD-1 with titrated antibody, OD 450 nm, fitted curve; enhancement. As for the experimental part: as §1
The target in assay [4] is T2, human PD-L1 protein. Put plainly: ELISA on human PD-L1 protein; antibody kept at 40 C for 0 (D0), 7 (D7) or 14 (D14) days. The procedure:
The antibody samples were treated separately at 40° C., and then centrifuged to remove the pellet. Then the amount of remaining antibody was evaluated by ELISA. (test after treatment at 40° C. for 7 days (D7) and 14 days (D14) separately; for each test, the untreated sample (D0) stored at −80° C. is used as a control) (FIG. 3)

Assay [5] concerns the target T1, biotin-labeled PD-L1-Fc. Put plainly: flow cytometry: biotin-PD-L1-Fc binding to CHO cells expressing human PD-1 with titrated antibody, fitted curve; enhancement. As for the experimental part: (§3) In the FACS test, CHO cells expressing human PD-1 and parent cells as a negative control were washed 3 times with PBS. 2.5×10⁵ detection cells and 50 μl of 3-fold serial dilutions of purified antibody with an initial concentration of 300 nM were added to a 96-well plate. […] Then the cells were washed 3 times with PBS, 100 μl of iFluor647-labeled streptavidin (1 μg/ml) was added, and the cells were incubated at 4° C. for 45 min. Finally, the cells were washed 3 times with PBS, and the signal was read on FACS BD Calibur.
(A flow cytometer gives signals particle by particle.)

The target in assay [6] is T2, human PD-L1 protein. Put plainly: ELISA on human PD-L1 protein; antibody treated for 20 min (all overlapping curves). As for the experimental part:
as §2

In assay [7] the target is T1, biotin-labeled PD-L1-Fc. Put plainly: flow cytometry: biotin-PD-L1-Fc binding to CHO cells expressing human PD-1 with titrated antibody; enhancement of PD-L1/PD-1 binding. As for the experimental part:
as §3

Assay [8] deals with T3, PD-L1-HIS recombinant protein (human, UniProt Q9NZQ7 19-238, limits assumed).
T3 construct: not shown: His tag
Put plainly: SPR (Biacore 8K), antibody captured on chip, PD-L1-HIS analyte 2.5-80 nM, 1:1 binding model. The procedure: The chip surface was equilibrated with HBS-EP buffer at a flow rate of 10 μl/min for 5 min, and then a 1:1 mixture of “NHS+EDC” was injected at a flow rate of 10 μl/min for 420 sec to activate the chip. The capture antibody (goat anti-murine IgG) diluted in 10 mM sodium acetate buffer was injected for about 420 sec at a flow rate of 10 μl/min for coupling, and finally ethanolamine was injected for 420 sec at a flow rate of 10 μl/min to block the surface.
Three pre-cycles were performed with the HBS-EP buffer as a sample to balance the chip to stabilize the baseline. The antibody diluted in HBS-EP buffer was injected for 30 sec at a flow rate of 10 μl/min (where the antibody-antigen binding signal was controlled to about 100 RU by adjusting the capture time between 0-5 min), and then the chip was equilibrated with the buffer for 1 min. The low-concentration antigen 2.5 nM PD-L1-HIS was injected at a flow rate of 30 μl/min for 240/300 seconds, to allow the antigen to bind to the antibody, and then the buffer was injected at a flow rate of 30 μl/min for 720/600 seconds for dissociation. 50 mM HCl were injected three times each for 15 s at a flow rate of 100 μl/min for regeneration, to complete one cycle. The antigen concentration was changed (such as 5 nM PD-L1-HIS) to carry out the cycle for measurement at a next gradient concentration until all gradient concentrations (2.5 nM, 5 nM, 10 nM, 20 nM, 40 nM, 80 nM PD-L1-HIS) and the replicate (such as 10 nM PD-L1-HIS) were tested.
The experimental data was double subtracted (minus the background values of the control channel and zero concentration), and fitted to the “1:1 binding” model in the Biacore 8K evaluation software. Biacore 8K was used to determine the affinity of the antibody to the PD-L1-HIS recombinant protein.
For orientation: In SPR one partner is held on a chip, and binding of the other changes the refractive index at the surface.

Assay [9] concerns the target T2, human PD-L1 protein. Put plainly: ELISA on the antigen (human PD-L1); antibody untreated (0), after oxidative stress (AAPH, 24 h) or deamidation stress (pH 9.0, 48 h); curves not told apart.
Assay [10] concerns the target T4, human PD-L1 on cell surface (human, UniProt Q9NZQ7 19-290). Put plainly: cell-based or functional assay.
The target in assay [11] is T5, monkey PD-L1 on cell surface (monkey).
T5 construct: whole, on cells; also called monkey PD-L1 cell line; CHO cells overexpressing monkey PD-L1
Put plainly: flow cytometry on CHO cells expressing monkey PD-L1, fitted curve. The procedure: (§4) CHO cells expressing human or monkey PD-L1 and parent cells as a negative control were washed 3 times with PBS. 2.5×10⁵ detection cells and 100 μl of 3-fold serial dilutions of purified antibody with an initial concentration of 300 nM were added to a 96-well plate and incubated at 4° C. for 1 hr. […] Finally, the cells were washed 3 times with PBS, and the signal was read on FACS BD Calibur.
Moreover, CHO cells overexpressing monkey PD-L1 were used to test the cross-recognition binding to monkey PD-L1 by the antibodies.

The target in assay [12] is T4, human PD-L1 on cell surface. Put plainly: flow cytometry on CHO cells expressing human PD-L1, fitted curve. The procedure: as §4

T4 sequence (Q9NZQ7 19-290): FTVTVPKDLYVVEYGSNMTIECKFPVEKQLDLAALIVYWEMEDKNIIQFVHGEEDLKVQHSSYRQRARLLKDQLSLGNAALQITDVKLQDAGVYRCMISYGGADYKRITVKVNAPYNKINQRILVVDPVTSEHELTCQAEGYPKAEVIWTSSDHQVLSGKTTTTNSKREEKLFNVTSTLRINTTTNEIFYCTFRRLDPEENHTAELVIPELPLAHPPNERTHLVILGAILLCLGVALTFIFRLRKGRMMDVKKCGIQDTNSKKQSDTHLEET
T2 sequence (Q9NZQ7 19-238 limits assumed): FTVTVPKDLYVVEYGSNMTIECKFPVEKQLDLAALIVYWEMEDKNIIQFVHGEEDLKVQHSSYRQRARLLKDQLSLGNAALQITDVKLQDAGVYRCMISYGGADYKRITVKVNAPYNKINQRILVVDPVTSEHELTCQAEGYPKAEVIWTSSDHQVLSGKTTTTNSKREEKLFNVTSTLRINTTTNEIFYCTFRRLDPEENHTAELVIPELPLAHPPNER
T1 sequence (Q9NZQ7 19-238 limits assumed): as above
T3 sequence (Q9NZQ7 19-238 limits assumed): as above

B1: AH02029 (antibody, human IgG1, V domains shown)
VH: QVQLQESGPGLVKPSQTLSLTCTVTGYSITSGYTWHWIRQHPGKGLEWIGYIHYSGSTKYNPSLKSRVSISRDTSKNQFSLKLSSVTAADTAVYYCARNSLFASWGQGTLVTVSS
VL: DIVLTQSPDSLAVSLGERATINCRASESVDTYGDSFMHWYQQKPGQPPKLLIYRASNLESGVPDRFSGSGSGTDFTLTISSLQAEDVAVYYCQQSNEAPYTFGGGTKLEIK
notes: also called mPD-L1Ab-5BM clone AH02029
As for B1, the EC50 (commonly the concentration needed to bring the measured effect to its halfway point) with biotin-labeled PD-L1-Fc [1] is 0.017 µg/mL; with biotin-labeled PD-L1-Fc [7], 38.7 nM; in assay [11], 3.4 nM; in assay [12], 0.478 nM. For the same molecule, the EC50 (read off the curve) (in general, the concentration giving half of the maximal effect) is roughly 0.04 µg/mL with human PD-L1 protein [2], roughly 0.01 µg/mL with human PD-L1 protein [4], roughly 0.01 µg/mL with human PD-L1 protein [6] and roughly 0.02 µg/mL in the assay with human PD-L1 protein [9]. In addition, the LogEC50 is 1.23 in the assay with biotin-labeled PD-L1-Fc [3], 1.59 in the assay with biotin-labeled PD-L1-Fc [5], 0.532 in assay [11] and -0.321 in assay [12]. In [8], the Kd (commonly the concentration at which binding is half-saturated) came to 1.57 nM. In [8], the koff (usually a measure of how fast the partners let go of each other) amounted to 0.000334 s⁻¹. In addition, the kon (usually a measure of how fast the partners come together) in assay [8] worked out at 213000 M⁻¹ s⁻¹. For the same molecule, in [10], the “Bottom (best-fit value) of IL-2 release, mixed lymphocyte reaction” value is 1350. The “EC50 (µg/ml) of IL-2 release, mixed lymphocyte reaction” value in [10] is 0.0293 µg/mL. In addition, in assay [10], the “LogEC50 (best-fit value) of IL-2 release, mixed lymphocyte reaction” value was -1.53. The “Span (best-fit value) of IL-2 release, mixed lymphocyte reaction” value in assay [10] stood at 1020. In addition, the “Top (best-fit value) of IL-2 release, mixed lymphocyte reaction” value in assay [10] is 2370.

These data come from patent US20220073618A1 (NANJING GENSCRIPT BIOTECH, published 2022).
